In this assay the target is Rad50 (Homo sapiens (Human)) (UniProt Q92878). Kind of assay: SILAC LC-MS/MS of anti-Flag immunoprecipitate, heavy (EVI1-Flag) over light (Flag control).
Sequence of UniProt Q92878 (Q92878 whole entry): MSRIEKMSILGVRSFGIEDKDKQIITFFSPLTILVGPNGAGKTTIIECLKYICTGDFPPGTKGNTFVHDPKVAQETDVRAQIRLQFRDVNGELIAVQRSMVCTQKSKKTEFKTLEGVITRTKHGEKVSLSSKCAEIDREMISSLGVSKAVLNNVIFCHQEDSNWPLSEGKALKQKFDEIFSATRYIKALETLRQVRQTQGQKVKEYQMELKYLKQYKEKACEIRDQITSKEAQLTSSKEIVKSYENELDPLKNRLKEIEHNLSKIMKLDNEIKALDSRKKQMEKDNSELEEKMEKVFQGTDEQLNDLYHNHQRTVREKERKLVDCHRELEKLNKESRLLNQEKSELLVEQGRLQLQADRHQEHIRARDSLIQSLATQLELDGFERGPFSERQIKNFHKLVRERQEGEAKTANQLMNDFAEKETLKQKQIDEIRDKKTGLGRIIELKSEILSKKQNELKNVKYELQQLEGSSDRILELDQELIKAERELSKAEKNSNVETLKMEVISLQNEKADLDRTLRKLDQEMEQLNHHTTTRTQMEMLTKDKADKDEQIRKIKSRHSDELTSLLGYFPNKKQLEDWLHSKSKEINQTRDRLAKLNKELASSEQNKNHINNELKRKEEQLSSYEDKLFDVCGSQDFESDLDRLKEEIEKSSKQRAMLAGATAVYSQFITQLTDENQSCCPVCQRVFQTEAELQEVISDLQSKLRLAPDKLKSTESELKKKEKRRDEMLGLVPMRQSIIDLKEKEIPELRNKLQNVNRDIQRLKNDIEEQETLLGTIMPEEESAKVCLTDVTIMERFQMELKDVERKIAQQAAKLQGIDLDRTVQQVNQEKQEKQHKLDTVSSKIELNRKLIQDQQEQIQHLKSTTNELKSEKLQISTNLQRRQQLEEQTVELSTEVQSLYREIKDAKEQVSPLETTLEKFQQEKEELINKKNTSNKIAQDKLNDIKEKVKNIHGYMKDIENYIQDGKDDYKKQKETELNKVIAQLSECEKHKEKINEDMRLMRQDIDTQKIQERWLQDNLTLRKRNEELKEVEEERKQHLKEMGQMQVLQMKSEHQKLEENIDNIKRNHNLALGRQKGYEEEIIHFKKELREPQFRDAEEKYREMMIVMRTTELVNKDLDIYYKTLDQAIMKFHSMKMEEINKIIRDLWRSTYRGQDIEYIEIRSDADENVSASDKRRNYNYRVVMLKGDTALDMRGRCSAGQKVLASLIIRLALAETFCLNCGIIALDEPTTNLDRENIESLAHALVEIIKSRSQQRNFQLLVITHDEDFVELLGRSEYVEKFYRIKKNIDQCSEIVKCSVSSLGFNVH

As to “EVI1-Flag construct (Evi1 protein with Flag tag, expressed in SKOV3 cells) (from UniProt Q03112 1-1051)”, the Evi1 enrichment (H/L ratio) was in the range of 7.11 to 47.8 H/L ratio.

(Values after US20170322217A1.)
